The values below come from the nanobody polyreactivity screen of Harvey et al. (2022).

The series is described as follows: yeast display, Sf9 membrane polyspecificity reagent, FACS + sequencing; frameworks hold sequencing errors. The gist of the method:
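Galactose-induced (36–48 hours) yeast carrying a synthetic nanobody display library were exposed to 10% biotinylated, detergent-solubilized Sf9 membrane reagent at 4 °C for 1 hour. FACS followed streptavidin microbead enrichment, using low and high (top ~1%) gates for expression (anti-HA) and reagent binding (streptavidin). Colony PCR, MiSeq 2 × 250 sequencing and CDR-length filtering followed. Labels for polyreactivity reflect the gate of origin.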
Turning to “QVQLVESGGGLVQAGGSRRIICAASGSIFGYYAMGWYRQAPGKEREFVAAISGRGSSTYYADSVKGRFTISRDNAQNTVYLQMNSLKPEDTAVYYCARVTYKHYGYWGQGTQVTVSS”, the “polyreactivity (PSR sort gate)” value is given as “high polyreactivity”.

As for “QVQLVESGGGLVQAGGSRRISCAASGIIFTLYVMGWYRQAPGTERELVAAIRSGGSTYYADSVKGRVTISRDNAKNTVYLQMNSLKPEDTAVYYCAARVRSGTGVGFDYWGQGTQVTVSS”, the “polyreactivity (PSR sort gate)” value was “high polyreactivity”.

As to “QVQLVESGGGLVQAGGSRRLICAASGSIFGWYAMGWYRPAHGKERELVAAISQSGGRTYYADSVKGRFTISRDNAKNTVYLQMNSLKPEDTAVYYCAAYYTSYWGYDYDYWGQGTQVTVSS”, the “polyreactivity (PSR sort gate)” value is reported as “low polyreactivity”.

Take “QVQLVESGGGLVQAGGSRRLSCAASGLIFVRYAMGWYRQAPGKERELVATISSRGASTYYADSVKGRFTISRDNAKNTVYFQMNSLKPEDTAVYYCNAGRLRRSYKPYDYWGQGTQVTVSS”: the “polyreactivity (PSR sort gate)” value is reported as “high polyreactivity”.

“QVQLVESGGGLVQAGGSRRLSCAASGLIMDYYAMGWYRQAPGKERELVAAISSGGTDTYYADSVKGRFTITRDNAKNTVYLQMNSLKPEDTAVYYCAADSYWSAYDYWGQGTQVTVSS”: the “polyreactivity (PSR sort gate)” value is reported as “low polyreactivity”.

With “QVQLVESGGGLVQAGGSRRLSCAASGSTFYGYAMGWYRQAPGKEREFVAAITTSGGSTYYADSVKGRFTISRDNAKNTVYLQMNSLKPEDTAVYYCAADGFYYDDGYWGQGTQVTVSS”, the “polyreactivity (PSR sort gate)” value was “low polyreactivity”.

“QVQLVESGGGLVQAGGSRRVSCAASGCIFGYNDMGWSRQAPGKDRELDASITWGGGRTRYADSVKGRFTISRDNAKNTVDLHMNSLKPEDTAVYYGAADKRSYSYVRPPRNQEDYWGQGTQVTVSS”: the “polyreactivity (PSR sort gate)” value is listed as “low polyreactivity”.

As to “QVQLVESGGGLVQAGGSRSLSCAASGSILWYYAMGWYRQAPGKERELVADITARGVGTYYADSVKGRFTISRDNAKNTVYLQMNSLKPEDTAVYYCNVETYSFYTLYVTYDYWGQGTQVTVSS”, the “polyreactivity (PSR sort gate)” value is recorded as “low polyreactivity”.

For “QVQLVESGGGLVQAGGSVRLSCAASGFIFTDNAMGWYRQPPLKERELVAAINLSGTRTYYADSVKGRFTISLDNAKNTVSLQMNSLKPEDTAVYYCNISEDYSYEYWGQGTQVTVSS”, the “polyreactivity (PSR sort gate)” value is “low polyreactivity”.

With “QVQLVESGGGLVQAGGSVRLSCAASGFIFYDYVMGWYRQAPGKERELVAAISASGGSTYYADSVKGRFTISRDYAKNTVYLQMNSLKPEDTAVYYCAAPRYYYYWRDYWGQGTQVTVSS”, the “polyreactivity (PSR sort gate)” value is “high polyreactivity”.

In the case of “QVQLVESGGGLVQAGGSVRLSCAASGLIFTIYAMGWYRQAPGKERELVAVITWSGGSTYYADSVKGRFTISRDNAKNTVYLQMYSLKPEDTAVYYCAVEWAYPYWYTYYLEDYWGQGTQVTVSS”, the “polyreactivity (PSR sort gate)” value was “low polyreactivity”.

Turning to “QVQLVESGGGLVQAGGSVRLSCAASGRIFSRKAMRWYIQAPGKERELVAAISRSGTSTYYADSVKGRFTISRDNAKNTVYLQMNSLKPEDNAVYYCAADYPAVISIRRYDYWGQGTQVTVSS”, the “polyreactivity (PSR sort gate)” value is given as “low polyreactivity”.

For the sequence “QVQLVESGGGLVQAGGTLLLSGAASGSIFGYNAMGWYRQAPGKERELVAAIRSSDSRTHYADSVKGRFRISRDNAKNTVYLQMNSLKPEDTAVYYCAAVKRRPGHYLYDYWGQGTQVTVSS”, the “polyreactivity (PSR sort gate)” value is “low polyreactivity”.

As to “QVQLVESGGGLVQAGGTLRISCAASGRTFRKYAMGWYRQAPGKERELVAAISWSGGSTYYANSVKGRFTISRDNAKNTVYLQMNSLKPEDTAVYYCAAVPVHTGSLYWGFTTGYDYWGQGTQVTVSS”, the “polyreactivity (PSR sort gate)” value is recorded as “low polyreactivity”.

As for “QVQLVESGGGLVQAGGTLRLSCAACGFTFSSYAMGWYRQAPGKERELVAAITYRGGSTYYADSVKGRFTISRDNAMNNVYLQMNSLKPEDTAVYYCAARWGYRMYWGQGTQVTVSS”, the “polyreactivity (PSR sort gate)” value is on record as “high polyreactivity”.

As to “QVQLVESGGGLVQAGGTLRLSCAACGSTYYRNAMGWYRPAPGKERELVATITRSGGSTYYADSVKGRFTISRDNAKNTVYLQMNSLKPEDTAVYYCAARGWYKSDYWGQGTQVTVSS”, the “polyreactivity (PSR sort gate)” value is reported as “low polyreactivity”.

“QVQLVESGGGLVQAGGTLRLSCAASGFIIPGYAMGCYRQAPGKERELVAAISGRGGSTYYADSVKGRFTISRDNAKNTVYLQMNSLKPEDTAVYYCNADWQDDLAGYDVDYWGQGTQVTVSS”: the “polyreactivity (PSR sort gate)” value is “low polyreactivity”.

“QVQLVESGGGLVQAGGTLRLSCAASGFTFFSNAMGWYRQPPGKERELVAAIPTNGGSTYYADSVKGRFTISRDNAMNTVYLQMNSLKPEDTALYYCAAEYTVGGPYSYDFWGQGTQVTVSS”: the “polyreactivity (PSR sort gate)” value is given as “low polyreactivity”.

For the sequence “QVQLVESGGGLVQAGGTLRLSCAASGIIFYSNAMGWYRQAPGKEWELVAGISKSGGSTYYADSVKGRFTISRDNAKNNVYLHMNSLKPEDTAVYYCAVRGGGRYRSWGYDYWGQGTQVTVSS”, the “polyreactivity (PSR sort gate)” value is recorded as “high polyreactivity”.

Turning to “QVQLVESGGGLVQAGGTLRLSCAASGIIIGSYAMGWYRQAPGKERELVAAITNGARTNYADSVKGRFTISRDNAKNTVYLQMNSLKPEDTAVYYCAADNYFDWYWLFFEYDYWGQGTQVTVSS”, the “polyreactivity (PSR sort gate)” value was “high polyreactivity”.

Regarding “QVQLVESGGGLVQAGGTLRLSCAASGRIFDGNTMGWDRQAPGKERELVAAIRSRGDRTYYADSVKGRFTISRDNAKNTVYLQMNSLKPEDTAVYYCAAQPSWYKPKGSWFEKGLYDYWGQGTQVTVSS”, the “polyreactivity (PSR sort gate)” value is reported as “low polyreactivity”.

For the sequence “QVQLVESGGGLVQAGGTLRLSCAASGRIFSGYVMGWYRPAPGKERELVAVISRSGGSTYYADSVKGRFTISRDNAKNTVYLQMNSLKPEDTAVDYCAAKHIDGSRGYDYWGQGTQVTVSS”, the “polyreactivity (PSR sort gate)” value is “low polyreactivity”.

In the case of “QVQLVESGGGLVQAGGTLRLSCAASGRIFSKNAMGWYRQAPGKERELVAAMSSSGTSTYYADSVKGRFTISRDNAKNTVYLQINSLKPEDTAVYYCAARVSLTTYSYYSWGQGTQLTVSS”, the “polyreactivity (PSR sort gate)” value is listed as “high polyreactivity”.

As to “QVQLVESGGGLVQAGGTLRLSCAASGRIFWAYAMGRYRQAPGKERELVAAITRSGGYTRYADSVKGRFTISRDNAKNTVYLLMNSLKPEDTAVYYCNAYAPRQLYGYDYWGQGSQVTVSS”, the “polyreactivity (PSR sort gate)” value is “high polyreactivity”.

With “QVQLVESGGGLVQAGGTLRLSCAASGRTFNYAMGWYRQAPGKERELVATITSGGSTNYADSVKGRFTISRDNAKNTVYLQLNSLKPEDTAVYYCNRDIPPGNYYKALYYYWGQGTQVTVSS”, the “polyreactivity (PSR sort gate)” value was “low polyreactivity”.

Consider “QVQLVESGGGLVQAGGTLRLSCAASGRTFYYYTMGWYRQAPGKERDLVAAISSTGNTYYADSVKGRFTISRDNAKNSVYLQMNSLNPADTALYYCAASGGSSDAYWGQGTQVTVSS”, for which the “polyreactivity (PSR sort gate)” value is “high polyreactivity”.

For the sequence “QVQLVESGGGLVQAGGTLRLSCAASGSIFARYAMGCSIQAPGKERELVAAISGSGASTYYADSVKGRFTISRDNAKNTVYLQMNSLKPEDTAVYYCARPFLRRPTYRFETGYGYWGQGTQVTVSS”, the “polyreactivity (PSR sort gate)” value is recorded as “high polyreactivity”.

Regarding “QVQLVESGGGLVQAGGTLRLSCAASGSIFPYYVMGWYRQAPGKERELVAAISTSDGSTYADSVKGRFTISRDNAKNTVYFQMNSLKPEDTAVYYCAVANVYYEGYDYWGQGTQVTVSS”, the “polyreactivity (PSR sort gate)” value is given as “low polyreactivity”.

Turning to “QVQLVESGGGLVQAGGTLRLSCAASGSTFAVNAMGWYRQPPGKERELVAAISRSGGSTYYADSVKGRFTISRDNAKNTDYLQMKSLKPEDTAFYYCNTRTPYWFKSDYWGQGTQVTVSS”, the “polyreactivity (PSR sort gate)” value is “low polyreactivity”.

In the case of “QVQLVESGGGLVQAGGTLRLSCAASGSTFRGYAMGWYRQAPGKERELVAAIRRAGSTNYAESVKGRFTISRDNAKNTVYLQMNSLKPEDTAVYYFADSKCLWYGASVSQKKAGMDSWGQGTQVTVSS”, the “polyreactivity (PSR sort gate)” value is given as “low polyreactivity”.

Turning to “QVQLVESGGGLVQAGGTLRLSCAASGSTFRYYAMGWYRQAPGKERELVATITSDGSTNYADSVKGRFTFSRDNAKNTVYLQLNSLKPEDTAVYYCNARCRRYKSSNSWGQGTQVTVSS”, the “polyreactivity (PSR sort gate)” value is “high polyreactivity”.

For the sequence “QVQLVESGGGLVQAGGTLRLSCAASGSTFVGYAMGWYRQAPGKERELVAAISSSGSTNYADSVKGRFTISRDNAKNTVYLQMNSLKPEDTAVYYCAALYSYFWLIIDYGYWGQGTQVTVSS”, the “polyreactivity (PSR sort gate)” value was “low polyreactivity”.

With “QVQLVESGGGLVQAGGTLRLSCAASGSTLYPYDMGWYRQAPGKERELVAAIDSGGSTNYADSVKGRFTISRDNAKNTVYLQMNRLKPEDTAVYYCAADASGENDYWGQGTQVTVSS”, the “polyreactivity (PSR sort gate)” value is given as “low polyreactivity”.

In the case of “QVQLVESGGGLVQAGGTLRLSCAASGYTSSLNAMRWYRQAPGKERELVARITTDGTSTYYADSVKGRFTISRDNAKNTVYLQMNSLKPEDTAVYYCNARYPAYGVRSWYPYAYYYWGQGTQVTVSS”, the “polyreactivity (PSR sort gate)” value was “low polyreactivity”.

As for “QVQLVESGGGLVQAGGTLRLSCADSGSTFTYNAMGWYRQAPGKERELVASISSGTTTYYADSVKGRFTISRDNAKNTVYLQMNSLKPEDTAVYYCAVDSWSRVQGWLAHNYDYWGQGTQVTVSS”, the “polyreactivity (PSR sort gate)” value is listed as “low polyreactivity”.

For “QVQLVESGGGLVQAGGTLRLSCAPSGRTFKRYAMGWYRQAPGKERELVAAISSGGSTYADSVKGRFTISRDNAKNTVYLHMNSLKTEDTAVYYCAARYRSYPERYNYWGQGTQGTVSS”, the “polyreactivity (PSR sort gate)” value was “high polyreactivity”.

As to “QVQLVESGGGLVQAGGTLRLSCAPSGSTFVPNAMGWYRQAPGKERELVATITSSSSRTYYADSVKGRFTISRDNAKNTVYLQMNSLKPEDTAVYYCAADGRRVVARYDYWGQGTQVTVSS”, the “polyreactivity (PSR sort gate)” value is on record as “high polyreactivity”.

Regarding “QVQLVESGGGLVQAGGTLRLSCDASGSIFFWKAMGWYRQAPGKERELVAAISYTDGSTYYADSVKGRFTIPRDNAKNTVYLLMNSLKPEDTAVYYCAAAITPSYNGSEYDYWGQGTQVTVSS”, the “polyreactivity (PSR sort gate)” value is “low polyreactivity”.

As to “QVQLVESGGGLVQAGGTLRLSCSASGSIFGIYAMGGYRHAPGKESELVAAITSGGSTYADSVKGRFTISRDNAKNTVYLQMNSLKPVDTAVYFCAAYGRDIGGYDYWGQGSQVTVSS”, the “polyreactivity (PSR sort gate)” value is recorded as “low polyreactivity”.

On to “QVQLVESGGGLVQAGGTLRLSSAPTGSNFSAYAKGWYREAPGKERELVAAISTSGYTNYADSVKGRFTISRDKALNTVYLQMNSLKPEDTAVSYCAADRDYGDGTAGYGYEFDYWGQGTQVTVSS”, for which the “polyreactivity (PSR sort gate)” value was “low polyreactivity”.

Take “QVQLVESGGGLVQAGGTLRLTCAASGTFYGNNMGWYIHAPGKQRELVATIRRSTGSTYYADSVKGRFTISRDNAKNTVYLQMNSLKPEDTAVYYCAAEIYSYYRLYWYDYRGQGTQVTVSS”: the “polyreactivity (PSR sort gate)” value is listed as “high polyreactivity”.
